Results reported in patent US20050032245A1 (Harvard, published 2005).
Oregon Green 514 = pentafluorofluorescein derivative

T1: MBP-UL42Δ340 (truncated UL42 processivity subunit of HSV DNA polymerase as maltose binding protein fusion) (herpes simplex virus, UniProt P10226 1-339, N-terminal MBP fusion, not carried in the letters)
T1 construct: Expressed in E. coli BL21(de3)pLysS and purified over amylose; also called wt UL42; HSV MBP-UL42
T1 sequence: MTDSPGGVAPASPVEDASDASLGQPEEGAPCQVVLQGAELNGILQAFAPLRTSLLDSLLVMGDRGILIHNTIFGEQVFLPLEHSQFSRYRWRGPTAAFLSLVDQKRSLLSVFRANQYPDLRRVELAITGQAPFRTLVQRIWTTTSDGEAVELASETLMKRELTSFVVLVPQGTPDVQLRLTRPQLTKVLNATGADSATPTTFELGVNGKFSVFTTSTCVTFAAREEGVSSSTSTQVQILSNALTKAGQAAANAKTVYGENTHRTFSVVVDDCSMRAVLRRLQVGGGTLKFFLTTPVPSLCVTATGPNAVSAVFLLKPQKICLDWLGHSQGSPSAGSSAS


What was measured:
[1] = target: T1, MBP-UL42Δ340 (truncated UL42 …); assay: fluorescence polarization competition; peptide A displaces labeled peptide E from 7 µM UL42, Hill equation
[2] = target: T1, MBP-UL42Δ340 (truncated UL42 …); assay: fluorescence polarization; MBP-UL42 titrated (1 to 50 µM) into 1 nM labeled peptide, Hofstee transformation

Binder | IC50 [1] [µM] | Kd [2] [µM]
DDVAARLRTAGFGAVGAGATAEETRRMLHRAFDTLA (also called 36-mer peptide A; unlabeled peptide A) [peptide A (36-mer derived from the C-terminus of HSV Pol)] | ~6 | 
{Oregon Green 514}-ATAEETRRMLHRAFDTLA-NH2 (also called Oregon Green-peptide E; labeled tracer) [Oregon Green 514-labeled peptide E (18 C-terminal amino acids of HSV Pol)] |  | 5
